{
  "source": "paper doi:10.64898/2025.12.08.692957",
  "key": {"[1]": {"target": "Hcp (purified) (Acinetobacter baylyi)", "assay": "mass photometry"}, "[2]": {"target": "TagF, DyLight 488 labelled (Acinetobacter baylyi)", "assay": "flow-induced dispersion analysis"}, "[3]": {"target": "Hcp (purified) (Acinetobacter baylyi)", "assay": "flow-induced dispersion analysis"}},
  "note": "pKd: −log10 of the molar value.",
  "data": [
    {"substance": "Hcp (purified) (natural protein)", "values": [
      {"measurement": "percent of Hcp present as hexameric complex", "setting": "[1]", "result": "> 93", "unit": "%"},
      {"measurement": "stoichiometry N", "setting": "[1]", "result": 6},
      {"measurement": "pKd", "setting": "[2]", "result": 4.52},
      {"measurement": "stoichiometry N", "setting": "[3]", "result": 6}
    ]}
  ]
}
